Assay results as given in article PMC8877046, “Interferon-β Activity Is Affected by S100B Protein” (International Journal of Molecular Sciences, 2013).
Values belong to the molecule of their own block, whether it stands above or below them.

Experiments:
[1] = target: IFNAR2 ECD (Homo sapiens) (UniProt P48551); details: cited from earlier work
[2] = target: the molecule itself; assay: cross-linking; 5 µM IFN-β alone; 40 mM EDAC, 10 mM sulfo-NHS, 25 °C, 1.5 h; 10 mM HEPES, 150 mM NaCl, pH 7.4; SDS-PAGE, silver staining; whether CaCl2 was present is not told for this lane
[3] = target: T1, Human S100B protein (human), P04271; assay: SPR; S100B immobilised by amine coupling on ProteOn GLH chip (up to 9000 RU); analyte 10-80 nM IFN-β; 25 °C; 10 mM HEPES, 150 mM NaCl, 0.05% TWEEN 20, 1 mM CaCl2, pH 7.4; heterogeneous ligand model (two populations of ligand); details: remark: other sources report otherwise
T1 chain: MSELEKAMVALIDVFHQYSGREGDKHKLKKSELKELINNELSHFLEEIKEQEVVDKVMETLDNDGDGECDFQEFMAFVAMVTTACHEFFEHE

[4] = target: the molecule itself; assay: cross-linking; 5 µM IFN-β with 10 µM Ca2+-depleted S100B (1:2), and 10 µM apo-S100B alone; 40 mM EDAC, 10 mM sulfo-NHS, 25 °C, 1.5 h; 10 mM HEPES, 150 mM NaCl, pH 7.4, without CaCl2 and without chelator; authors say the samples could be contaminated by Ca2+
[5] = target: T2, Human interferon beta-1a (IFN-β, Rebif) (human), P01574; assay: other fluorescence titration; tryptophan fluorescence of 0.5 µM IFN-β (excitation 295 nm) titrated by S100B; 25 °C; 10 mM HEPES-NaOH, 150 mM NaCl, 1 mM CaCl2, pH 7.4; one-site binding model; apparent; details: remark: other sources report otherwise
T2 chain: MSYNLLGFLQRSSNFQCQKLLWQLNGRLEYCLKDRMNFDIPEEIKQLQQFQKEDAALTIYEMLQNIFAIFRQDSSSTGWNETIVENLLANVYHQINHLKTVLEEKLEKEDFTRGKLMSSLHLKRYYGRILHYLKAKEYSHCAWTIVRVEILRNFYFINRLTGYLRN

Chain of IFNAR2 ECD (Homo sapiens) (P48551 27-243): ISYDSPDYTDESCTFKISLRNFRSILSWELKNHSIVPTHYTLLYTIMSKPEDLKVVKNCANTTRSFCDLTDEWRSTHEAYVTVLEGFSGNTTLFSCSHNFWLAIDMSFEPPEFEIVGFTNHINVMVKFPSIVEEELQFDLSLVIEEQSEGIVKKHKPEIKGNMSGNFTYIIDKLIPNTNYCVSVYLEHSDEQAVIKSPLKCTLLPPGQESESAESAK

Molecule: IFN-β (from UniProt P01574)
- Kd [1]: 0.1 nM

- Kd1 (ligand population 1 of the heterogeneous ligand model) [3]: 47 pM
- Kd2 (ligand population 2 of the heterogeneous ligand model) [3]: 87 nM
- kd1 (dissociation rate constant, ligand population 1 of the heterogeneous ligand model) [3]: 0.000149 s⁻¹
- kd2 (dissociation rate constant, ligand population 2 of the heterogeneous ligand model) [3]: 0.013 s⁻¹
- t1/2 of dissociation (fast process) [3]: 1.67 min
- t1/2 of dissociation (slow process) [3]: > 16.7 min
B1: Human interferon beta-1a (IFN-β, Rebif) (ligand, UniProt P01574 22-187, looked up)
chain: MSYNLLGFLQRSSNFQCQKLLWQLNGRLEYCLKDRMNFDIPEEIKQLQQFQKEDAALTIYEMLQNIFAIFRQDSSSTGWNETIVENLLANVYHQINHLKTVLEEKLEKEDFTRGKLMSSLHLKRYYGRILHYLKAKEYSHCAWTIVRVEILRNFYFINRLTGYLRN
notes: human interferon-β (interferon beta-1a), gene IFNB1, UniProt P01574; Drug product Rebif; also called Interferon-β; source: produced in CHO-K1 cells; bought: Merck (Rebif)
- binding result [2]: binds

- Kd [5]: 21 nM
- stoichiometry N (S100B to IFN-β molar ratio) [5]: 1
B2: Human S100B protein (natural protein)
chain: MSELEKAMVALIDVFHQYSGREGDKHKLKKSELKELINNELSHFLEEIKEQEVVDKVMETLDNDGDGECDFQEFMAFVAMVTTACHEFFEHE
notes: human S100B, UniProt P04271; crystal structure of Ca2+-loaded human S100B dimer PDB 5D7F chains A and B; The authors take the S100B that was amine-coupled to the SPR chip to be partly converted to the monomer; also called apo-S100B; Ca^2+-loaded S100B
- stoichiometry N [4]: 2
